{"source": "patent US8017725B2", "about": "“Use of heparin-binding domain of fibronectin for diagnosis and treatment of cancer” (Novartis Forschungesstiftung Zweigniederlassung Friedrich …, priority 2001, dated 2011)", "key": {"tenascin-C [1]": {"system": "tenascin-C", "test": "In vitro binding assay (ELISA) to tenascin-C", "parameters": "species or system chicken", "settings": "substratum-immobilised tenascin-C", "description": "(§1) 96-well ELISA plates were coated with the indicated ECM proteins for 1 h at 37° C., blocked with 1% milkpowder, 0.05% Tween-20 in PBS. ECM proteins were added at the indicated concentrations in blocking solution for 1 h, washed with blocking solution and anti-fibronectin or anti-tenascin-C antibodies were added. Bound proteins were detected by immune reaction with a peroxidase-coupled secondary antibody specifically recognising anti-fibronectin and anti-tenascin-C antibodies, respectively, followed by colour reaction with 21 mg/ml citric acid 1-hydrate, 34 mg/ml Na2HPO4.2H2O, 0.4 mg/ml phenylenediamine, 1 μl H2O2 that was stopped with 4M sulphuric acid. The absorbance was read at […].\nBound fragments were detected with a polyclonal anti-fibronectin antibody, bound tenascin-C was detected with a monoclonal anti-tenascin-C antibody."}, "syndecan-4": {"system": "syndecan-4", "test": "Syndecan-4 immunoprecipitation and immunoblotting for FNIII13", "assay_type": "binding", "description": "(§2) To investigate FNIII13 as a potential ligand of syndecan-4, the interaction of syndecan-4 with FNIII13 was tested. Upon addition of FNIII13 to T98G:S4* cells, FNIII13 was detected in a syndecan-4 immunoprecipitation followed by western blotting with a GST specific antibody. This interaction was blocked upon addition of heparin. Parental and syndecan-4 overexpressing T98G:S4* cells were incubated with (100 μg/ml) FNIII13 for 1 h in the presence or absence of 0.5 mg/ml heparin. Syndecan-4-bound FNIII13 was detected by immunoprecipitation of syndecan-4 and immunoblotting for FNIII13. Recombinant FNIII13 was added to the cells in the absence or presence of (0.5 mg/ml) heparin. […] To further test whether FNIII13 binds to syndecan-4, FNIII13 was added to T98G cells and cell surface-bound FNIII13 was detected by pull down of the GST-tagged FNIII13 with glutathione Sepharose followed by western blotting with an anti-His antibody or by immunofluorescence with an anti-GST antibody. […] This interaction could be blocked by heparin showing that syndecan-4 bound FNIII13 in a glycosaminoglycan-dependent manner. In addition, cell surface-bound FNIII13 was detected by immunofluorescence with an anti-His and anti-GST antibody. […] Syndecan-2 expression was determined by incubation with chicken anti-syndecan-2, followed by rabbit anti-chicken and FITC coupled goat anti-rabbit immunostaining."}, "[2]": {"system": "T98G cells, MDA-MB435 cells and rat embryo fibroblasts REF52", "test": "Attachment assay: cell spreading on fibronectin/tenascin-C with added fibronectin fragment", "assay_type": "cell-based", "description": "60-well microtiter plates (Nunc) were coated with 10 μg/ml ECM molecules giving rise to 1 μg/cm^2 (fibronectin and tenascin-C) and 4 μg/cm^2 (FNIII13) for 1 h at 37° C. ECM proteins were coated separately, starting with fibronectin, followed by tenascin-C, FNIII13 and BSA. The non-coated plastic surface was blocked with 1% heat-inactivated BSA in PBS giving rise to 10 μg/cm^2 protein. Similarly, mixed substrata of collagen I and laminin 1, respectively with tenascin-C were prepared and tenascin-C was detected by ELISA.\nEfficient fibronectin and tenascin-C coating was determined by ELISA with an anti-fibronectin and anti-tenascin-C antibody (Fischer, D. et al (1995) J Biol Chem 270: 3378-3384), respectively and by PAGE analysis of lysed surface-bound ECM material combined with Coomassie Brilliant Blue staining. Before plating, cells were serum starved for 18 h in DMEM containing 1×ITS (insulin, transferrin, selene) supplement, trypsinised, trypsin was blocked with 100 μg/ml soybean trypsin inhibitor in PBS and, cells were resuspended in serum-free medium and counted. 200-500 cells per well were plated for the indicated time points, fixed by addition of glutaraldehyde (2% final concentration) for 15 minutes and stained with 0.1% crystalviolet in 20% methanol for 30 minutes. Cells were observed under a Nikon microscope (Nikon diaphot) and pictures were taken with a Nikon camera.\n(§3) Cells were plated on substrata (FN, FN/TN, FN/TN/III13, FN/TN+III13, III13, or BSA) for 1 h and 2 h, fixed and stained with crystal violet or vinculin and TRITC—labelled phalloidin. Adherent cells were photographed and spread cells were counted. Six-fold molar excess of FNIII13 (4 μg/cm^2) was either bound to a mixed fibronectin/tenascin-C substratum prior to addition of the cells (FN/TN/III13) or, was added in solution together with the cells (FN/TN+FNIII13). Proliferation of MDA-MB435 cells and DNA replication of T98G glioblastoma cells were determined as described in Examples 4 and 5. […] T98G cells plated for 2 h on fibronectin or on the mixed substratum were stained for vinculin. […] In addition, polymerisation of actin into stress fibres was blocked by tenascin-C. No polymerised actin was found."}, "T98G and REF52 cells": {"system": "T98G and REF52 cells", "test": "Immunofluorescence of actin stress fibres and focal contacts", "assay_type": "cell-based", "description": "10^4 cells were transferred onto 4-well Cellstar plastic plates (Greiner) that were coated with ECM proteins as described. Cells were fixed with 4% paraformaldehyde, 50 mM phosphate buffer, 5 mM EDTA in PBS for 15 minutes, blocked with 3% BSA, 0.5% Tween-20 in PBS and incubated with primary and secondary antibodies in blocking solution. Slides were embedded in 10.5% Mowiol containing 2.5% DABCO as antifade agent. Expression of syndecans was determined by immunofluorescence.\nas §3"}, "[3]": {"system": "binding of tenascin-C to surface-immobilised intact fibronectin", "test": "Competition of tenascin-C binding to surface-immobilised intact fibronectin", "description": "as §1\nNo binding of the recombinant fragment FNIII7-10, including the RGD and synergy sites, to tenascin-C was detected in an ELISA assay."}, "tenascin-C [4]": {"system": "tenascin-C", "test": "Co-immunoprecipitation with tenascin-C", "assay_type": "binding, chicken"}, "[5]": {"system": "FAK (focal adhesion kinase) autophosphorylation at Y397", "test": "FAK autophosphorylation by immunoblotting", "assay_type": "cell-based, human", "settings": "T98G parental and T98G:S4* cells", "description": "An experiment was performed to check for the possibility that tenascin-C might compete with syndecan-4 for binding to the HepII site in fibronectin. The experiment tested whether activation of syndecan-4 through overexpression could rescue the tenascin-C-induced spreading defect on fibronectin. Parent T98G cells, pools (T98G:S4) or a selected clone (T98G:S4*) of glioblastoma cells stably overexpressing syndecan-4 (T98G:S4) were plated on the indicated substrata for 30 minutes, 2 h, 18 h or fixed, stained with crystal violet, photographed, and counted or stained with TRITC-labelled phalloidin and vinculin. Syndecan-4 was detected by immunofluorescence with an anti-syndecan-4 antibody. There was no staining with an unspecific anti-His monoclonal antibody (control), nor with the secondary antibody alone. FAK (focal adhesion kinase) autophosphorylation at Y397 and total FAK expression levels were assessed by immunoblotting with specific antibodies. DNA replication was determined as described in Example 4 and 5. As a result, pools of T98G cells (T98G:S4) that overexpressed syndecan-4 thereby activating syndecan-4 attached and spread on the mixed fibronectin/tenascin-C substratum. The majority of the 64.7% of T98G:S4 cells that attached also spread on the fibronectin/tenascin-C substratum. […]"}, "T98G:S4* cells": {"system": "T98G:S4* cells", "test": "Cell surface binding of FNIII13 (pull down, western blotting, immunofluorescence)", "assay_type": "cell-based, human", "settings": "compared to parental T98G", "description": "as §2"}, "[6]": {"settings": "fragment bound (immobilised) to the mixed substratum"}}, "note": "“Also recorded” adds a separate entry of the source."}
{"molecule": "fibronectin: Fibronectin prepared from horse serum by gelatin agarose chromatography", "values": [{"measurement": "binding to tenascin-C in ELISA", "setting": "tenascin-C [1]", "value": "binds to substratum-immobilised tenascin-C in a dose-dependent manner"}]}
{"molecule": "heparin [reference compound]", "values": [{"measurement": "effect on the FNIII13/syndecan-4 interaction", "setting": "syndecan-4; 0.5 mg/ml heparin", "value": "blocked"}]}
{"molecule": "SEQ ID NO:4: 20 amino acid fragment of FNIII13 having the sequence of SEQ ID NO:4, made by solid phase synthesis (RRARVTDATETTITISWRTK; listed as Homo sapiens)", "values": [{"measurement": "restoration of cell spreading on fibronectin/tenascin-C substratum", "setting": "[2]; [6]", "value": "restored cell spreading"}, {"measurement": "restoration of actin stress fibres and focal contacts on fibronectin/tenascin-C substratum", "setting": "T98G and REF52 cells", "value": "largely restored"}]}
{"molecule": "FNIII13: recombinant 13th fibronectin type III repeat of the HepII site (SEQ ID NO:1) (protein, listed as Homo sapiens) NVSPPRRARVTDATETTITISWRTKTETITGFQVDAVPANGQTPIQRTIKPDVRSYTITGLQPGTDYKIYLYTLNDNARSSPVVIDAST", "values": [{"measurement": "binding to tenascin-C in ELISA", "setting": "tenascin-C [1]", "value": "bound to tenascin-C in a dose-dependent manner reaching saturation"}, {"measurement": "competition of tenascin-C binding to immobilised intact fibronectin", "setting": "[3]", "value": "competed for by FNIII13 in a concentration-dependent fashion"}, {"measurement": "complex formation with tenascin-C in co-immunoprecipitation", "setting": "tenascin-C [4]", "value": "form complexes"}, {"measurement": "attachment and spreading on the fragment alone as substratum", "setting": "[2]; FNIII13 substratum without fibronectin", "value": "poorly attached and remained rounded"}, {"measurement": "restoration of cell spreading on fibronectin/tenascin-C substratum", "setting": "[2]; fragment added in solution together with the cells", "value": "restored"}, {"measurement": "restoration of cell spreading on fibronectin/tenascin-C substratum", "setting": "[2]; [6]", "value": "could restore the cell spreading defect"}, {"measurement": "restoration of actin stress fibres and focal contacts on fibronectin/tenascin-C substratum", "setting": "T98G and REF52 cells", "value": "largely restored"}, {"measurement": "FAK autophosphorylation at Y397", "setting": "[5]", "value": "largely restored FAK autophosphorylation"}, {"measurement": "FNIII13 bound to syndecan-4 in immunoprecipitation", "setting": "syndecan-4; T98G:S4* cells, 100 μg/ml FNIII13, 1 h", "value": "detected"}, {"measurement": "binding to the cell surface of syndecan-4 overexpressing T98G cells", "setting": "T98G:S4* cells", "value": "dose-dependent and heparin-competable manner; also recorded: several fold increased levels"}]}
